± gives the standard error. For part of these data: Fewer inactive variants are shown than the library holds.
B1: glmS ribozyme (parent)
chain: AUAAAAGCGCCAGAACUACAGAAAUGUAGUUGACGAGGAGGAGGUUUAUCGAAUUUUCGGCGGAUGCCUCCAAA

Columns and labels:
Conditions in all cases: with glucosamine-6-phosphate
[1] = variants of: B1; assay: kcat; higher = faster cleavage; RNA array
Procedure, shortened: (§1)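 Sequenced MiSeq chips were the platform: E. coli RNA polymerase transcribed barcoded ribozyme variants on them in situ, and a hybridised Cy3 probe tracked these at 37 °C. After glucosamine-6-phosphate (40 μM to 10 mM) in HEPES/KCl/Mg(OAc)2 buffer was flowed in, tiles were imaged over ~14 h. Signals normalised to baseline and to non-cleaving reference variants were reduced to per-tile medians and fit to one- or two-exponential decays to obtain kobs. kcat and KM were derived through weighted Michaelis–Menten fits across concentrations.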

[2] = variants of: B1; assay: self-cleavage kobs at 40 uM GlcN6P; higher = faster cleavage; RNA array
Procedure, shortened: as §1

[3] = variants of: B1; assay: self-cleavage kobs at 160 uM GlcN6P; higher = faster cleavage; RNA array
Procedure, shortened: as §1

[4] = variants of: B1; assay: self-cleavage kobs at 640 uM GlcN6P; higher = faster cleavage; RNA array
Procedure, shortened: as §1

[5] = variants of: B1; assay: self-cleavage kobs at 2500 uM GlcN6P; higher = faster cleavage; RNA array
Procedure, shortened: as §1

[6] = variants of: B1; assay: self-cleavage kobs at 10000 uM GlcN6P; higher = faster cleavage; RNA array
Procedure, shortened: as §1

[7] = variants of: B1; assay: KM; higher = weaker cofactor use; RNA array
Procedure, shortened: as §1

Variant | kcat [1] | self-cleavage kobs at 40 uM GlcN6P [2] | self-cleavage kobs at 160 uM GlcN6P [3] | self-cleavage kobs at 640 uM GlcN6P [4] | self-cleavage kobs at 2500 uM GlcN6P [5] | self-cleavage kobs at 10000 uM GlcN6P [6] | KM [7]
AUAAAAGCGCCAGAACUACAGAAAUGUAGUUGACGAGGAGUAGGUUUAUCGAAUGUUCGGCGGAUGCCUCCAAA [G41U U55G] | 0.000303 ± 5.3e-05 s⁻¹ | 3.39e-05 ± 1.1e-05 s⁻¹ | 9.74e-05 ± 2.6e-05 s⁻¹ | 0.000276 ± 3.9e-05 s⁻¹ | 0.000419 ± 7.2e-05 s⁻¹ | 0.000252 ± 3.2e-05 s⁻¹ | –
AUAAAAGCGCCAGAACUACAGAAAUGUAGUUGACGAGGAGGAGGUGUAUCGAAUCUUCGGCGGAUGCCUCCAAA [U46G U55C] | 0.0109 ± 0.0051 s⁻¹ | 0.000264 ± 3.5e-05 s⁻¹ | 0.000497 ± 5.4e-05 s⁻¹ | 0.00171 ± 0.00029 s⁻¹ | 0.00371 ± 0.00062 s⁻¹ | 0.0103 ± 0.0013 s⁻¹ | –
AUAAAGGCGCCAGAACUACAGAAAUGUAGUUGACGAGGAGGAGGUUUAUCGAAUUUUCGGCGGGUGCCUCCAAA [A6G A64G] | 1.81e-05 ± 5.8e-06 s⁻¹ | < 1e-05 s⁻¹ | – | – | – | – | –
AUAAAAGCGCCAGGAAUACAGAAAUGUAGUUGACGAGGAGGAGGUUUAUCGAAUUUUCGGCGGAUGCCUCCAAA [A14G C16A] | 0.00509 ± 0.0016 s⁻¹ | 0.000249 ± 4.2e-05 s⁻¹ | 0.000745 ± 0.00023 s⁻¹ | 0.0021 ± 0.00042 s⁻¹ | 0.00276 ± 0.00082 s⁻¹ | 0.00789 ± 0.0017 s⁻¹ | 847 ± 380 µM
AUAAAAGCGCUAGAACUACAGAAAUGUAGUUGACGAGGAGUAGGUUUAUCGAAUUUUCGGCGGAUGCCUCCAAA [C11U G41U] | 9.92e-05 ± 3.5e-06 s⁻¹ | – | – | 4.38e-05 ± 1.5e-05 s⁻¹ | 8.28e-05 ± 1.7e-05 s⁻¹ | 9.12e-05 ± 1e-05 s⁻¹ | 740 ± 130 µM
AUAAAAGCGCCAGCACUACAGAAAUGUAGUUGACGCGGAGGAGGUUUAUCGAAUUUUCGGCGGAUGCCUCCAAA [A14C A36C] | < 1e-05 s⁻¹ | < 1e-05 s⁻¹ | < 1e-05 s⁻¹ | – | – | – | –
AUAAAAGCGCCAGUACUACAGAAAUGUAGUGGACGAGGAGGAGGUUUAUCGAAUUUUCGGCGGGUGCCUCCAAA [A14U U31G A64G] | 0.00476 ± 0.0018 s⁻¹ | 6.69e-05 ± 1.5e-05 s⁻¹ | – | 0.000996 ± 0.00037 s⁻¹ | 0.00162 ± 0.00048 s⁻¹ | 0.00468 ± 0.0012 s⁻¹ | –
AUAAAAGCGCCAGAACUACAGAAAUGUAGUUAACGAGGAGUAGGUUUAUCGUAUUUUCGGCGGAUGCCUCCAAA [G32A G41U A52U] | < 1e-05 s⁻¹ | < 1e-05 s⁻¹ | – | < 1e-05 s⁻¹ | – | – | 1010 ± 120 µM
AUAAAAGCGCCAGAUCUACAGAAAUGUAGUUGACGAGGAGUAGGUUUAUCGAAUUUUCGGCGGAUGCCUCCAAA [A15U G41U] | 0.000143 ± 2.5e-05 s⁻¹ | – | 4.82e-05 ± 1.4e-05 s⁻¹ | 0.000255 ± 5.3e-05 s⁻¹ | 0.000115 ± 1.5e-05 s⁻¹ | 0.000149 ± 1.7e-05 s⁻¹ | –
AUAAAAGCGCCAGAACUACAGAAAUGUAGUUGACGAGGGGGAGGUUUAUCGAGUUUUCGGCGGAUGGCUCCAAA [A39G A53G C67G] | 0.00302 ± 0.001 s⁻¹ | 0.000234 ± 7.2e-05 s⁻¹ | 0.000647 ± 0.00024 s⁻¹ | 0.00135 ± 0.00029 s⁻¹ | 0.00536 ± 0.0012 s⁻¹ | 0.00257 ± 0.00072 s⁻¹ | –
AUAAAAGCGCCAGAACUACAGAAAUGUAGUUGUCGAGGAGGAGGUUUAUCGAUUUUUCGGCGGAUGCCUCCAAA [A33U A53U] | 4.9e-05 ± 3.4e-06 s⁻¹ | < 1e-05 s⁻¹ | < 1e-05 s⁻¹ | – | 2.34e-05 ± 1e-05 s⁻¹ | 3.95e-05 ± 9.4e-06 s⁻¹ | 2490 ± 550 µM
AUAAAAGCGCCAGAACUACAGAAAUGUAAUUGACGAGGAGGAGGUUUAUAGAAUUUUCGGCGGAUGCCUCCAAA [G29A C50A] | 1.1e-05 ± 3.2e-06 s⁻¹ | – | – | – | – | – | –
AUAAAAGCGCCAGAACUACAGAAAUGUAGGUGACGAGGAGGAGGUUUUUCGAAUUUUCGGCGGAUGCCUCCAAA [U30G A48U] | 7.56e-05 ± 6e-06 s⁻¹ | < 1e-05 s⁻¹ | < 1e-05 s⁻¹ | – | 5.84e-05 ± 1.2e-05 s⁻¹ | 6.65e-05 ± 1.1e-05 s⁻¹ | 1040 ± 340 µM
AUAAAAGCGCCAGAAUUACAGAAAUGUAGUUGACGAGGAGGAGGGUUAUCGAAUUUUCGGCGGAUGCCUCCAAA [C16U U45G] | 0.00669 ± 0.00062 s⁻¹ | 0.000135 ± 2.4e-05 s⁻¹ | 0.000468 ± 0.00016 s⁻¹ | 0.00156 ± 0.00026 s⁻¹ | 0.00321 ± 0.00074 s⁻¹ | 0.00593 ± 0.001 s⁻¹ | 2070 ± 280 µM
AUAAAGGCGCCAGAACUACAGAAAUGUAGUUGACGAGGAGGAGGUUUAUCGAAUUUUCGGCGGAGGCCUCCAAA [A6G U65G] | 0.000323 ± 2.1e-05 s⁻¹ | – | – | 4.35e-05 ± 1e-05 s⁻¹ | 0.000141 ± 1.6e-05 s⁻¹ | 0.000234 ± 2e-05 s⁻¹ | 3580 ± 500 µM
AUAAAAGCGCCAGAACUACAGAAAUGUAGUUGACGAGUAGGAGGUUUAUCGAAUUUUGGGCGGAUGCCUCCAAA [G38U C58G] | < 1e-05 s⁻¹ | – | – | – | – | – | –
